Reference: publication PMC13216289 (NPJ Vaccines, 2026)

Experiments:
Conditions in all cases: both partners purified
[1] = molecular target: VP1 subunit of reduced O1M VLPs (Foot-and-mouth disease virus …, UniProt Q6PMW3); experiment: far-Western, overlay or dot blot
[2] = molecular target: VP1 C-terminal peptide, residues 196-210 of O/UKG/34/2001 (Foot-and-mouth disease virus …, UniProt Q80B19); experiment: ELISA
[3] = molecular target: VP1 C-terminal peptide, residues 199-213 of O/UKG/34/2001 (Foot-and-mouth disease virus …, UniProt Q80B19); experiment: ELISA

B1: Ab34 (antibody, V domains shown)
VH: QVQLRESGPSLVKPSQTLSLTCTVSGFSLTDVHVGWVRQTPGKALEWVGVICNRGAIGYNPALESRLSITEDNSKSQVSLSLSSVTTADTATYYCASSCRTEGDVGGDCDSDHFFCAWGQGLLVTVSS
VL: SYELTQPTSVSVALGQTAKITCSGDLLDRQYAQWYQQKPGQGPVRVIYKDSERPSGISDRFSGSSSGKTATLTVSGAQTEDEADYYCHSADSSHYPVFGSGSTLTVL
- binding result [1]: binds

B2: Ab17 (antibody, V domains shown)
VH: QVQLRESGPSSLKPSQTLSLTCAVSGFSLSTYAVGWVRQAPGKALEWVGDITSSGDTFYNPALKSRFSITKDNSKNQVSLSVGSVTPEDTATFYCTRLTCGDDCSTAWHNFDAWGQGLLVTVSS
VL: SYELTQPTSVSVALGQTAKITCSGDLLDVQYTQWYQQKPGQGPVRVIYKDSERPSGISDRFSGSSSGKTATLIISGAQTEDEADYYCQSTDSSQYGIFGRGTTLTVL
- binding result [2]: binds
- binding result [3]: binds
- binding result [1]: binds

B3: Ab49 (antibody, V domains shown)
VH: QVQLRESGPSLVKPSQTLSLTCTVSGFSLTNYAVGWVRQAPGKAIQSLSIISTTGDTYYNPALKSRLSITKDNSKSQVSLSVSSVAPEDTATYYCVKFCGNADSAGHGWGCDYGDNENWGQGLLVTVSS
VL: SYELTQPTSVSVALGQTAKITCSGDLLDEQYTQWYQQKPGQGPVRVIYKDSERPSGISDRFSGSSSGKTATLTISGAQTEDEADYYCQSFYSSTDPVFGSGTTLTVL
- binding result [2]: binds
- binding result [3]: binds
- binding result [1]: binds
